{"source": "the DeepSol protein solubility set", "experiment": "soluble on expression in E. coli; label from the status in PepcDB or PDB records"}
{"sequence": "MHPLLRRLDLNLLLVFDALYRHRNVGTAASELAISASAFSHALGRLRQGLDDELFLRQGNRMQPTQRAEHLAAAVAAALRALGEGLEEWRPFVPGQSQRTFVFAATDYTAFALLPPLMNRLQHSAPGVRLRLVNAERKLSVEALASGRIDFALGYDEEHERLPEGIQAHDWFADRYVVVARRDHPRLAGAPTLEGYLAERHAVVTPWNEDSGVIDRLLARSGLRREVAVQLPTVLAALFLAGSTDFLLTAPRHAARALAEAAGLALYPAPFDIPPYVLRLYSHVQHVGRDAHAWMIGQLKGLDISRTG", "values": [{"measurement": "soluble on expression in E. coli", "value": "soluble"}]}
{"sequence": "MIKRGFPAVLDENTEILILGSLPSDESIRKQQYYGNPGNDFWRLVGHAIGENLQDMAYEKKLKTLKHNRIGLWDVFKAGSREGSQDSKIGDEEINDFSGLKEMVPKLRLICFNGRKAGEYEPLLRGMGYETKVLPSSSGANRRFSKNRESEWEAVFRHLEHHHHHH", "values": [{"measurement": "soluble on expression in E. coli", "value": "soluble"}]}
{"sequence": "MSLAEAVAQGAFGKVISVRGSGARVGLLPSSRLVPSAVRATVGRFVSIRTASSTIIAIITEVSSENLAETDEHIAVASVDLLGEILPGPLRPKFQRGVTNYPTIGDSVDLISSDDLRIVYEPTGSDQIDVGTLQQDPSVIAYVDIEEMLSKHFAVLGSTGVGKSTGVSLLLNEILKSRPALRIFLLDVHNEYGRSFGDKALVLNPRNLKLPFWLFNFEEIVDVLFAGRPGVPEELDILAEVIPVAKGLYVQYTSTDRLGLKRVDPKSIGYTADTPVPYRLVDLISLIDERMGKLENRSSRIIYHKLISRIETVRNDPRYAFMFDNANVGGDTMADVISHLFRLPANGKPMTIMQLAGFPAEVVDSVVSVLCRMAFDFGLWSDGVSPLLFVCEEAHRYAAADRAIGFGPTRKAVSRIAKEGRKYGVYLGLVTQRPAELDATILSQCNTLFAMRLANDRDQSLLRSAVSDAAANLLSFVPSLGTREVLAFGEGVALPTRLRFKEVPAHQLPRSEAAISTVPSAAAGNDMHFVSAVLERWRGATSHRDVPNDPGIAERPLARTLDAPMLQPSLGLDPDRFSLLKKPLREGHHHHHH", "values": [{"measurement": "soluble on expression in E. coli", "value": "soluble"}]}
{"sequence": "MGSDKIHHHHHHMLARGKTNLKIEEIRMHKHHEIHRVKPLMPALCRIRQGKKVINWETHTLTVDNNQIILFPCGYEFYIENYPEAGLYLAEMLYLPIDLIESFQKLYTVTDQIRNKTSFFLPQNPELIYCWEQLKTSVSRGFSTKIQEHLAMGVLLSLGVNHVNHLLLSYSKQSLISRCYNLLLSEPGTKWTANKVARYLYISVSTLHRRLASEGVSFQSILDDVRLNNALSAIQTTVKPISEIARENGYKCPSRFTERFHNRFNITPREIRKASRE", "values": [{"measurement": "soluble on expression in E. coli", "value": "not soluble"}]}
{"sequence": "NFLLTQPHSVSESPGKTVTISCTRSSGSIANNYVHWYQQRPGSSPTTVIFEDDHRPSGVPDRFSGSVDTSSNSASLTISGLKTEDEADYYCQSYDHNNQVFGGGTKLTVLG", "values": [{"measurement": "soluble on expression in E. coli", "value": "soluble"}]}
{"sequence": "MKSRRAFITDAGGDHGSMNTQATPSPQFYLTAPATCPYLPNQMERKVFTHLVGPRAPEMNDLLTQGGFRRSQNIAYRPACETCRACVSVRILTEQFQPTKSMRRVLAANSDVVATVHAAEPSTEQFALFRRYLDHRHQSGGMSDMSALDYAIMVEDTHVNTRIIEYRVREPGSGIDSSKRGELLAVALSDVMSDGLSMVYSFFNPELEKRSLGTFMIIDHITRTRALGLPHVYLGYWVDGSEKMGYKTRYHPQEHLTPRGWEIYSPKEELEHHHHHH", "values": [{"measurement": "soluble on expression in E. coli", "value": "not soluble"}]}
{"sequence": "KIVCDFTEYNPLHKGHKYALEKGKEHGIFISVLPGPLERSGRGIPYFLNRYIRAEMAIRAGADIVVEGPPMGIMGSGQYMRCLIKMFYSLGAEIIPRGYIPEKTMEKVIDCINKGYHIQVKPYKIICIETGEILGEKLNIDNYVIASMSQMIYKLNREGLKFNPKFVFVKRLEGISGTKIREAIFSGKFEDIKNMLPKTTLSILKELYDNGKL", "values": [{"measurement": "soluble on expression in E. coli", "value": "not soluble"}]}
{"sequence": "MGEQPIFTTRAHVFQIDPSTKKNWVPASKQAVTVSYFYDVTRNSYRIISVDGAKVIINSTITPNMTFTKTSQKFGQWADSRANTVFGLGFSSELQLTKFAEKFQEVREAAR", "values": [{"measurement": "soluble on expression in E. coli", "value": "soluble"}]}
{"sequence": "MGHHHHHHGGHMSLDMKLQQVQVLKPQLTQELRQAITLLGYHSAELAEYIDELSLENPLIERKETDTPPLSYHKTNKNRMNAQEAGLQLSNPQKTLQDALKQQSLDMNLTNTEKKIFNYLIHSLDSNGYLEEDIEEAARRLSVSAKEAEAVLAKLQSLEPAGIGARSLQECILLQLQRLPNRNEQAEMLVSAHFDAFAQKKWKTLSVETGIPLHTIQDISDDIAALHPRPGLLFARPEQDVYIEPDIFITVKNGHIAAELNTRSFPEIDLHPQYRTLLSSGSCQDTVSYLSAKYQEWRWLSRALRQRKQTITRIINELITRQKDFFLKGRSAMKPLTLREVADCLSLHESTVSRAIKGKTIQTPYGLFEMKLFFSAKAEASGDGDASNYAVKTHLENLINQEDKTKPLSDQKLVDLLYEQHGIQISRRTVAKYRDQMNIPSSAARKRYKEGGS", "values": [{"measurement": "soluble on expression in E. coli", "value": "soluble"}]}
{"sequence": "MDSLQKTTMIDLLLRSDKRRKILLFLKEGPKNIEEITALLGSSCTAVLPQMKKLIEKGLVRQENKIYRLSTVGMIVTEKLVPLLGTIEVFENNLEYWAQKDLTGIPAFLRLKLEMLSQYEVIEPQLNRMFEPPEEFINSLKKSTEIMYFSSFFQPCFSGFDQDFLKKRTDSTFIFTKNFFERISSPHSEEYDELLLPERANLYVYDGISSLVSLTVTERFMALMLLNKKGKLDQNLLISSESEAIEWGKELFMYYREISKKIYGDKADRLLSEKIIPPGKKSGYGTGSDLLQISCLRKTKYKMAAALEHHHHHH", "values": [{"measurement": "soluble on expression in E. coli", "value": "not soluble"}]}
{"sequence": "MKAIVTLNTTGAQLSVPASSRNLLETLEYHQVPVEYQCRSGYCGSCRMRLLKGEVCYLQQPLAFIQAGEILPCCCQPKGNIEIEF", "values": [{"measurement": "soluble on expression in E. coli", "value": "not soluble"}]}
{"sequence": "MDNEMNYGSDYKFIPATSIESGHGIEVLRDLFCYTIQIVNICFVGNPETNDFVLVDAGMPKCANEIISIAKDRFGTNSRPKAIILTHGHFDHVGGIIELIKHWDVHVYAHQMEIPFLTGQQSYPEPDPTVEGGMVAKMSPLFPNEPIDLGNNVKALPTDGTVPHMPEFRWIHTPGHTPGHISLFREKDRTLIAGDAFVTVKQEYLYKVITQEQEISGPPRYLTTDWKAAKESVLKLEKLKPLTAVTGHGIPMSGELLSTSLKTLVQEFDKIAVPDYGKYIDKKMHLEHHHHHH", "values": [{"measurement": "soluble on expression in E. coli", "value": "soluble"}]}
{"sequence": "MPVFSINVNVKVPAEKQNEILKELSTVLGKLLNKPEQYMCIHFHEDQGILYAGTTEPAGFAVLKSIGGVGSAKQNNAISAVVFPIIEKHLGIPGNRLYIEFVNLGAADIAYNGQTFA", "values": [{"measurement": "soluble on expression in E. coli", "value": "not soluble"}]}
{"sequence": "MGLHYFLDHKKEDLYKSVQDVYKSDDRPWVVGFSGGKDSTVVVQIIFYALASMSKNELTKPVYIISSDTMVENPKILEHIDTQLLKMKKAANELELPIHVEKVMPNIKNTFWVNLIGRGYPAPRQKFRWCTDRLKIDPANNFILNKVSEFGETVVVLGVRKSESSTRAQVMNTHKVEGKILRRHTKLPNSYVYAPIEDFSLDDVWTYLMQVPNPWGADNADLLALYQDSQGECPLVIDNSTPSCGNSRFGCWVCTVVQEDKSLKGFIESGDEWLTPLLKFRNWLLENRDKEDYREKKRANGSVYLIGDEDNKRLGLGPYTLEHRKEILRKLLETEKQLQHPHQPKYELITIEELKEIRKIWFEKGDWEDSVLAIYEEVYGHRPNWDIEESKFLESEDIKLLKKLCHEEEVEFELVQKLVNLEFQHYGYKHRYGILKDINRILNEEWLHFDQLQQGDNYAD", "values": [{"measurement": "soluble on expression in E. coli", "value": "not soluble"}]}
{"sequence": "AIAAAPIESLLNEICESEDPIEELKSLRTAVLATPVSGLRPAVSGARLEIIFSLLNTNDKEQIEVCVEILSRVLQALEPVQLAQNYRTALQSGLNHPDDSVKVLTLTQIGRVAGHTEGVTQMLNNVEILHDVIQCISVERIAVAKEAIAALSKLSNTKAGLDALFRSDLLNKLKDVMLTSDIIRYRVYELIVEVSTVSPVSLGYCANSGLISQMLEELTGDDVLVRATAIEMVTNLAQSQHGRQYLAQQGIMDKISSVQKIFGAHNYLKLKTYLNEGSYYVTAVSAVTTEGAD", "values": [{"measurement": "soluble on expression in E. coli", "value": "soluble"}]}
{"sequence": "PLGVSAAGALDRASLRRANRLVGNASSAAAIESVNGGLTVEAVGDQVIAVTGAPTTLTIESPSWVGSDDDDGGARPGGKRTVPMAAPFALLDGELLTLGAPESGFRNYVAIRGGVDAPEVLGSRSADTMSGIGPAPLAIRQVLATGEQTASTAVGAPELQPDFPGAGVTVLDVVPGPRADWFDQEALDSLCNQEWLVTPQSNRVGMRLDGKPLERTREGELPSEGTMAGALQIPPAGLPVLFLADHPITGGYPVIGVVRDEHLDRAAQVPIGGRIRFRLVPDSADFTTTTTKTPEK", "values": [{"measurement": "soluble on expression in E. coli", "value": "not soluble"}]}
{"sequence": "MTEKDYGQVTGMVHSTESFGSVDGPGIRFIIFLQGCKLRCQYCHNPDTWEMETNNSKIRTVNDVLKEALQYKHFWGKKGGITVSGGEAMLQIDFITALFIEAKKLGIHTTLDTCGFTYRPTPEYHQVLDNLLAVTDLILLDLKEIDEKQHKIVTRQPNKNILQFARYLSDKQIPVWIRHVLVPGLTD", "values": [{"measurement": "soluble on expression in E. coli", "value": "not soluble"}]}
{"sequence": "MNDRARELASRLIRNFNEASLEHEVREPLYESAAARLGTGTVAHKLGASVDVVAPGKRSCPYHFHHAQEEMFVIIEGEGSLRVAGEMLPIKTGDVLFIPAGPEYPHQIINTSQAPLKYLSISTRETPEVCEYPDSGKYQAMVSANGARVFTANQRTTENVDYWDGEPLEHHHHHH", "values": [{"measurement": "soluble on expression in E. coli", "value": "soluble"}]}
{"sequence": "STTTTTKKPHVLVIPFPQSGHMVPHLDLTHQILLRGATVTVLVTPKNSSYLDALRSLHSPEHFKTLILPFPSHPCIPSGVESLQQLPLEAIVHMFDALSRLHDPLVDFLSRQPPSDLPDAILGSSFLSPWINKVADAFSIKSISFLPINAHSISVMWAQEDRSFFNDLETATTESYGLVINSFYDLEPEFVETVKTRFLNHHRIWTVGPLLPFKAGVDRGGQSSIPPAKVSAWLDSCPEDNSVVYVGFGSQIRLTAEQTAALAAALEKSSVRFIWAVRDAAKKVNSSDNSVEEDVIPAGFEERVKEKGLVIRGWAPQTMILEHRAVGSYLTHLGWGSVLEGMVGGVMLLAWPMQADHFFNTTLIVDKLRAAVRVGENRDSVPDSDKLARILAESAREDLPERVTLMKLREKAMEAIKEGGSSYKNLDELVAEMCL", "values": [{"measurement": "soluble on expression in E. coli", "value": "soluble"}]}
{"sequence": "MVNFVAKDIYTKDSIQRGGQDVIIEKHEIQIDQITSGKVNIFTFYRNRKQIDDHFLRLQEPSLTANYFFHFHFDAESLHLLQKEFPSVYPYDGSETIHDWTEKMKAELQHQIQTGKWNKRVRIGNRILDVVFTWCDEDIVE", "values": [{"measurement": "soluble on expression in E. coli", "value": "not soluble"}]}
{"sequence": "MGSDKIHHHHHHMKITIYSKDLYTYGAMLVGGILKETHKHNIKLIKDIKNKKLFLKSDIVILSLYSTLNIIDPVIKDTVDYLKSKNIKIYVAGPVSAYPEIILNELNVDGVILGEGELTTPEIINGSKDGLAYFENGEMIVNKPKSKPDLDFSKIYVPKDIAAQNVRGANVYIETHRGCLGHCTFCQVPEFFGRDIRSKPIELIIEEVNELKKNGVNRIAISGGTGSLYNFKNTVNKNKFIEMIESVSNIIGRQNLSVPDMRVDYVDEEVLNAIKNYSIGWVFYGIESGSDKLLNSMKKGTNSKKNLKAIELAKDCGVKVAGSFIVGHPKEKEVDFLMTKDFIVDAELDDVFVSAAEPIPKTELCTEVLNTKMDENPTFISHNGPYRRYGLKENEARAYDLMLHSEMWKSTPRVITTNLSKVYLDEAKMQGSDIRKATELIFKYRDFLI", "values": [{"measurement": "soluble on expression in E. coli", "value": "not soluble"}]}
{"sequence": "MENSSDPRTQSAATASLSEMIATITKTFIIAHVDDSDEHLAQALVYNAGRLAWRMREQGVHTDYKTSLSDVVTDADRAAEEFVSGVLTTLRPEDGIVGEEGATRNSTSGRTWVIDPVDGTYNFVNGSDFWCSALALIEGEPEDPTSVIFGAVHRPAMGYTWFGGPEIPTTCDGQPVAKLENKSTELINFATYLNPPCLQQPEIVTRWLTIAQAFLSWRMMGSGSVELANVADGTIGAYVQHSVKDWDWLPGRALVEGAGGKCIKVESGGVTWSIASNPQATDEVAAMLSR", "values": [{"measurement": "soluble on expression in E. coli", "value": "not soluble"}]}
